# T1: human BCMA (B-cell maturation antigen) on cells (human, UniProt Q02223 1-184)
# T1 sequence (looked up): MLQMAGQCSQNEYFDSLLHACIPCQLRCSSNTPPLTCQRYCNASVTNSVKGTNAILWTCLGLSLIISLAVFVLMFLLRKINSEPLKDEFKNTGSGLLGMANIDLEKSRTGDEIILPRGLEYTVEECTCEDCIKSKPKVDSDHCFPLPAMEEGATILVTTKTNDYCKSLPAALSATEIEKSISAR
# T2: BCMA-Fc antigen (R&D Systems) (UniProt Q02223 1-54)
# T2 construct: also called BCMA fc fusion protein (R&D Systems, cat #193-BC-050); recombinant BCMA-Fc; not shown: Fc portion of the bought fusion protein
# T2 sequence (looked up): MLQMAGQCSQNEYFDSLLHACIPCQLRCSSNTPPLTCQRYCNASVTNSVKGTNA
# B1: BCMA-4 CAR (139103) (other)
# chain: QVQLVESGGGLVQPGRSLRLSCAASGFTFSNYAMSWVRQAPGKGLGWVSGISRSGENTYYADSVKGRFTISRDNSKNTLYLQMNSLRDEDTAVYYCARSPAHYYGGMDVWGQGTTVTVSSASGGGGSGGRASGGGGSDIVLTQSPGTLSLSPGERATLSCRASQSISSSFLAWYQQKPGQAPRLLIYGASRRATGIPDRFSGSGSGTDFTLTISRLEPEDSAVYYCQQYHSSPSWTFGQGTKLEIKTTTPAPRPPTPAPTIASQPLSLRPEACRPAAGGAVHTRGLDFACDIYIWAPLAGTCGVLLLSLVITLYCKRGRKKLLYIFKQPFMRPVQTTQEEDGCSCRFPEEEEGGCELRVKFSRSADAPAYKQGQNQLYNELNLGRREEYDVLDKRRGRDPEMGGKPRRKNPQEGLYNELQKDKMAEAYSEIGMKGERRRGKGHDGLYQGLSTATKDTYDALHMQALPPR
# notes: also called B4; JF32-78IB
# B2: BCMA-5 CAR (139104) (other)
# chain: EVQLLETGGGLVQPGGSLRLSCAVSGFALSNHGMSWVRRAPGKGLEWVSGIVYSGSTYYAASVKGRFTISRDNSRNTLYLQMNSLRPEDTAIYYCSAHGGESDVWGQGTTVTVSSASGGGGSGGRASGGGGSEIVLTQSPATLSVSPGESATLSCRASQSVSSNLAWYQQKPGQAPRLLIYGASTRASGIPDRFSGSGSGTDFTLTISSLQAEDVAVYYCQQYGSSLTFGGGTKVEIKTTTPAPRPPTPAPTIASQPLSLRPEACRPAAGGAVHTRGLDFACDIYIWAPLAGTCGVLLLSLVITLYCKRGRKKLLYIFKQPFMRPVQTTQEEDGCSCRFPEEEEGGCELRVKFSRSADAPAYKQGQNQLYNELNLGRREEYDVLDKRRGRDPEMGGKPRRKNPQEGLYNELQKDKMAEAYSEIGMKGERRRGKGHDGLYQGLSTATKDTYDALHMQALPPR
# notes: also called AR99-08FA
# B3: BCMA-7 CAR (139106) (other)
# chain: EVQLVETGGGLVQPGGSLRLSCAVSGFALSNHGMSWVRRAPGKGLEWVSGIVYSGSTYYAASVKGRFTISRDNSRNTLYLQMNSLRPEDTAIYYCSAHGGESDVWGQGTTVTVSSASGGGGSGGRASGGGGSEIVMTQSPATLSVSPGERATLSCRASQSVSSKLAWYQQKPGQAPRLLMYGASIRATGIPDRFSGSGSGTEFTLTISSLEPEDFAVYYCQQYGSSSWTFGQGTKVEIKTTTPAPRPPTPAPTIASQPLSLRPEACRPAAGGAVHTRGLDFACDIYIWAPLAGTCGVLLLSLVITLYCKRGRKKLLYIFKQPFMRPVQTTQEEDGCSCRFPEEEEGGCELRVKFSRSADAPAYKQGQNQLYNELNLGRREEYDVLDKRRGRDPEMGGKPRRKNPQEGLYNELQKDKMAEAYSEIGMKGERRRGKGHDGLYQGLSTATKDTYDALHMQALPPR
# notes: also called QR91-12ZA
# B4: BCMA-2 CAR (139101) (other)
# chain: QVQLQESGGGLVQPGGSLRLSCAASGFTFSSDAMTWVRQAPGKGLEWVSVISGSGGTTYYADSVKGRFTISRDNSKNTLYLQMNSLRAEDTAVYYCAKLDSSGYYYARGPRYWGQGTLVTVSSASGGGGSGGRASGGGGSDIQLTQSPSSLSASVGDRVTITCRASQSISSYLNWYQQKPGKAPKLLIYGASTLASGVPARFSGSGSGTHFTLTINSLQSEDSATYYCQQSYKRASFGQGTKVEIKTTTPAPRPPTPAPTIASQPLSLRPEACRPAAGGAVHTRGLDFACDIYIWAPLAGTCGVLLLSLVITLYCKRGRKKLLYIFKQPFMRPVQTTQEEDGCSCRFPEEEEGGCELRVKFSRSADAPAYKQGQNQLYNELNLGRREEYDVLDKRRGRDPEMGGKPRRKNPQEGLYNELQKDKMAEAYSEIGMKGERRRGKGHDGLYQGLSTATKDTYDALHMQALPPR
# notes: also called UR96-08PA
# B5: BCMA-3 CAR (139102) (other)
# chain: QVQLVQSGAEVKKPGASVKVSCKASGYTFSNYGITWVRQAPGQGLEWMGWISAYNGNTNYAQKFQGRVTMTRNTSISTAYMELSSLRSEDTAVYYCARGPYYYYMDVWGKGTMVTVSSASGGGGSGGRASGGGGSEIVMTQSPLSLPVTPGEPASISCRSSQSLLYSNGYNYVDWYLQKPGQSPQLLIYLGSNRASGVPDRFSGSGSGTDFKLQISRVEAEDVGIYYCMQGRQFPYSFGQGTKVEIKTTTPAPRPPTPAPTIASQPLSLRPEACRPAAGGAVHTRGLDFACDIYIWAPLAGTCGVLLLSLVITLYCKRGRKKLLYIFKQPFMRPVQTTQEEDGCSCRFPEEEEGGCELRVKFSRSADAPAYKQGQNQLYNELNLGRREEYDVLDKRRGRDPEMGGKPRRKNPQEGLYNELQKDKMAEAYSEIGMKGERRRGKGHDGLYQGLSTATKDTYDALHMQALPPR
# notes: Chimeric antigen receptor; also called KR98-03KA
# B6: BCMA-11 CAR (139110) (other)
# chain: QVQLVQSGGGLVKPGGSLRLSCAASGFTFSDYYMSWIRQAPGKGLEWVSYISSSGNTIYYADSVKGRFTISRDNAKNSLYLQMNSLRAEDTAVYYCARSTMVREDYWGQGTLVTVSSASGGGGSGGRASGGGGSDIVLTQSPLSLPVTLGQPASISCKSSESLVHNSGKTYLNWFHQRPGQSPRRLIYEVSNRDSGVPDRFTGSGSGTDFTLKISRVEAEDVGVYYCMQGTHWPGTFGQGTKLEIKTTTPAPRPPTPAPTIASQPLSLRPEACRPAAGGAVHTRGLDFACDIYIWAPLAGTCGVLLLSLVITLYCKRGRKKLLYIFKQPFMRPVQTTQEEDGCSCRFPEEEEGGCELRVKFSRSADAPAYKQGQNQLYNELNLGRREEYDVLDKRRGRDPEMGGKPRRKNPQEGLYNELQKDKMAEAYSEIGMKGERRRGKGHDGLYQGLSTATKDTYDALHMQALPPR
# notes: also called UG65-93FB
# B7: BCMA-4NP tool CAR (other)
# chain: QVQLVQSGAEVKKPGSSVKVSCKASGGTFSNYWMHWVRQAPGQGLEWMGATYRGHSDTYYNQKFKGRVTITADKSTSTAYMELSSLRSEDTAVYYCARGAIYNGYDVLDNWGQGTLVTVSSGGGGSGGGGSGGGGSGGGGSDIQMTQSPSSLSASVGDRVTITCSASQDISNYLNWYQQKPGKAPKLLIYYTSNLHSGVPSRFSGSGSGTDFTLTISSLQPEDFATYYCQQYRKLPWTFGQGTKLEIKR
# Assays:
# [1] = molecular target: T1, human BCMA (B-cell maturation antigen) …; assay: cell-based or functional assay
# [2] = molecular target: T2, BCMA-Fc antigen (R&D Systems); assay: flow cytometry; BCMA-Fc staining of CAR-transduced JNL cells
# Description: Jurkat-NFAT-luciferase (JNL) cells transduced with BCMA CAR constructs were evaluated for activation in response to BCMA-expressing target cell lines. Small-scale viral supernatant samples were generated in HEK293T cells for transduction of JNL cells. On Day 3 following transduction, BCMA CAR-transduced JNL cells were incubated with target cells at an effector-to-target (E:T) ratio of 6:1. Target cell lines were: K562-BCMA (engineered to stably express BCMA), K562 (parental line), and BCMA positive multiple myeloma cell lines, NCI-H929 and RPMI 8226. JNL activation was measured using Bright-Glo substrate (Promega) on Day 4. CAR expression on transduced JNL was assessed on Day 7 with BCMA-Fc antigen and Biotin-Protein L reagent (Table 21).
Binder,"JNL binding assay, ratio to K562; K562-BCMA [1] [ratio]","JNL binding assay, ratio to K562; NCI-H929 [1] [ratio]","JNL binding assay, ratio to K562; RPMI 8226 [1] [ratio]","Proliferation CD3, ratio to no target; K562-BCMA [1] [ratio]","Proliferation CD3, ratio to no target; KMS11-luc [1] [ratio]","Proliferation CD3, ratio to no target; NCI-H929 [1] [ratio]","Proliferation CD3, ratio to no target; RPMI 8226 [1] [ratio]","Proliferation CD4, ratio to no target; K562-BCMA [1] [ratio]","Proliferation CD4, ratio to no target; KMS11-luc [1] [ratio]","Proliferation CD4, ratio to no target; NCI-H929 [1] [ratio]","Proliferation CD4, ratio to no target; RPMI 8226 [1] [ratio]","Proliferation CD8, ratio to no target; K562-BCMA [1] [ratio]","Proliferation CD8, ratio to no target; KMS11-luc [1] [ratio]","Proliferation CD8, ratio to no target; NCI-H929 [1] [ratio]","Proliferation CD8, ratio to no target; RPMI 8226 [1] [ratio]",% CAR+ (BCMA-Fc detection) [2] [%]
B1,4.47,3.31,6.25,7.37,8.63,8.64,8.14,9.21,8.6,9.86,10.1,5.66,8.74,7.42,6.19,49.5
B2,2.34,2.34,2.4,1.62,1.61,1.72,1.73,2.19,1.9,2.23,2.15,0.99,1.27,1.11,1.25,28.9
B3,2.55,2.36,2.77,1.72,1.71,1.8,1.62,2.17,1.96,2.23,1.91,1.08,1.35,1.18,1.19,30.4
B4,,,,,,,,,,,,,,,,32
B5,,,,,,,,,,,,,,,,0
B6,,,,,,,,,,,,,,,,42.7
B7,,,,,,,,,,,,,,,,28.3

# — patent US20220064316A1 (published 2022)
